Experimental data taken from patent US20060239966A1.
Each block holds one binder with its values, some of them ahead of it.

Legend:
[1] = target: GFRα2/Fc fusion protein (R&D Systems); assay: GFRα2 ELISA: GFRα2/Fc on anti-human Fc plate, Ret-AP detection; conditioned medium of transfected HEK293 cells
[2] = target: GFRα2/Fc fusion protein (R&D Systems); assay: GFRα2 ELISA: GFRα2/Fc on anti-human Fc plate, Ret-AP detection; conditioned medium of transfected CHO cells
[3] = target: GFRα2/Fc fusion protein (R&D Systems); assay: GFRα2 ELISA: GFRα2/Fc on anti-human Fc plate, Ret-AP detection; conditioned medium of transfected HiB5 cells
[4] = target: GFRα2/Fc fusion protein (R&D Systems); assay: GFRα2 ELISA: GFRα2/Fc on anti-human Fc plate, Ret-AP detection; conditioned medium of transfected ARPE-19 cells

fold higher GFRα2 binding activity of conditioned medium (wt construct set to 1) [1]: 90 fold
fold higher GFRα2 binding activity of conditioned medium (wt construct set to 1) [2]: 4.1 fold
fold higher GFRα2 binding activity of conditioned medium (wt construct set to 1) [3]: 7.5 fold
fold higher GFRα2 binding activity of conditioned medium (wt construct set to 1) [4]: 117 fold
B1: Neurturin secreted from cells transfected with the dpro-NTN construct (wt NTN signal peptide fused to human mature NTN, no pro-region) (ligand)
chain: ARLGARPCGLRELEVRVSELGLGYASDETVLFRYCAGACEAAARVYDLGLRRLRQRRRLRRERVRAQPCCRPTAYEDEVSFLDAHSRYHTVHELSARECACV

fold higher GFRα2 binding activity of conditioned medium (wt construct set to 1) [1]: 278 fold
fold higher GFRα2 binding activity of conditioned medium (wt construct set to 1) [2]: 66 fold
fold higher GFRα2 binding activity of conditioned medium (wt construct set to 1) [3]: 162 fold
fold higher GFRα2 binding activity of conditioned medium (wt construct set to 1) [4]: 771 fold
B2: Neurturin secreted from cells transfected with the IgSP-NTN construct (mouse immunoglobulin heavy chain signal peptide fused to human mature NTN) (ligand)
chain: B1 chain
